Laboratory results reported in paper PMC12794319 (Biochemical Journal, 2025).

How the values were obtained:
[1] = biological target: T1, human wildtype TMPRSS2 ectodomain (activated, two-chain) (human, UniProt O15393-1 107-255; O15393-1 256-492); experiment: enzyme inhibition kinetics (tight-binding inhibition, fit to the Morrison equation); 50 pM human or hamster TMPRSS2 incubated with a 2/3-fold serial dilution of HAI-2 (300 to 5.2 pM) for 16 hours at room temperature; rates on the fluorogenic substrate Boc-Gln-Ala-Arg-AMC; equilibrium inhibitory constant; triplicate; details: both partners purified
T1 construct: TMPRSS2, human, UniProt O15393-1; held to the SP domain by a disulfide bond after cleavage; Expressed as one chain 107-492 with an Ig kappa leader; also called Human TMPRSS2; Hu TMPRSS2; source: FreeStyle 293 F (HEK293F), co-transfected with full-length HAI-2; purified from the supernatant (G25, Ni-NTA IMAC, size-exclusion chromatography)

[2] = biological target: T2, Syrian hamster wildtype TMPRSS2 ectodomain (activated, two-chain) (Syrian hamster (Mesocricetus auratus), UniProt A0A1U8C7X1 108-254; A0A1U8C7X1 255-491); experiment: as above; details: both partners purified
T2 construct: TMPRSS2, Syrian hamster (Mesocricetus auratus), UniProt printed as 'A0A1U8C7 × 1'; N-terminal non-catalytic part of the ectodomain construct 108-491 up to the arginine of the scissile bond, R254; Expressed as one chain 108-491 with an Ig kappa leader; also called Hamster TMPRSS2; Ham TMPRSS2; source: FreeStyle 293 F (HEK293F), co-transfected with full-length HAI-2; purified from the supernatant …
T2 sequence (chain, as listed by the source, chain 1 of 2): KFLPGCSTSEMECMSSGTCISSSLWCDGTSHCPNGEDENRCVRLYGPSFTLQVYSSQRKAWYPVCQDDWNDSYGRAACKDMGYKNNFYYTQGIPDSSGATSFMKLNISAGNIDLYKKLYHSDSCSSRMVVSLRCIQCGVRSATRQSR
T2 sequence (chain, as listed by the source, chain 2 of 2): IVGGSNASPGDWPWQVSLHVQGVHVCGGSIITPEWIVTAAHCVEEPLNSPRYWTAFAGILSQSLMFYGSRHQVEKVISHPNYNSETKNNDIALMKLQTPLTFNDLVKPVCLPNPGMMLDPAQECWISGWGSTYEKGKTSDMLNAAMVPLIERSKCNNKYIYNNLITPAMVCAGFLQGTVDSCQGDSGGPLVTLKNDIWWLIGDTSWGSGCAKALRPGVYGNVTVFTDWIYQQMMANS

T1 sequence (O15393 107-255, chain 1 of 2): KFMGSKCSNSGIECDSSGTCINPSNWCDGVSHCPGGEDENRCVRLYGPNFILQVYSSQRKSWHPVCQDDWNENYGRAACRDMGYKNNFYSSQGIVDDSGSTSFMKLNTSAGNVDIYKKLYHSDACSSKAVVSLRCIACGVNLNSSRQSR
T1 sequence (O15393 256-492, chain 2 of 2): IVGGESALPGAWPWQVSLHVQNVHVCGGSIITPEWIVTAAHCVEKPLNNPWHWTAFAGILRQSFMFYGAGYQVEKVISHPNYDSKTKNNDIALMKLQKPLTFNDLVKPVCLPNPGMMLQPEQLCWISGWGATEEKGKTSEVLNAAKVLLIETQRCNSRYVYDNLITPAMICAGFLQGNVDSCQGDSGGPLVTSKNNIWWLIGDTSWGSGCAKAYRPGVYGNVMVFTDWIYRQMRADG

B1: human HAI-2 (hepatocyte growth factor activator inhibitor-2) ectodomain (domain or fragment, UniProt O43291-1 36-196, looked up)
chain: DFCLVSKVVGRCRASMPRWWYNVTDGSCQLFVYGGCDGNSNNYLTKEECLKKCATVTENATGDLATSRNAADSSVPSAPRRQDSEDHSSDMFNYEEYCTANAVTGPCRASFPRWYFDVERNSCNNFIYGGCRGNKNSYRSEEACMLRCFRQQENPPLPLGS
notes: source: FreeStyle 293 F (HEK293F), pcDNA3.1; purified (Ni-NTA IMAC, size-exclusion chromatography)
B1 gave a Ki [1] of 4.6 pM and a Ki [2] of 0.7 pM.
